Measured values taken from US20160002343A1 (AbbVie / Abbott, published 2016).

T1: Repulsive guidance molecule A (Mus musculus (Mouse), UniProt Q6PCX7 48-427, GPI anchor at the C-terminus after removal of 428-454. Autocatalytic cleavage between 169 and 170 may split the protein into two disulfide-linked fragments. The letters carry neither.)
T1 sequence: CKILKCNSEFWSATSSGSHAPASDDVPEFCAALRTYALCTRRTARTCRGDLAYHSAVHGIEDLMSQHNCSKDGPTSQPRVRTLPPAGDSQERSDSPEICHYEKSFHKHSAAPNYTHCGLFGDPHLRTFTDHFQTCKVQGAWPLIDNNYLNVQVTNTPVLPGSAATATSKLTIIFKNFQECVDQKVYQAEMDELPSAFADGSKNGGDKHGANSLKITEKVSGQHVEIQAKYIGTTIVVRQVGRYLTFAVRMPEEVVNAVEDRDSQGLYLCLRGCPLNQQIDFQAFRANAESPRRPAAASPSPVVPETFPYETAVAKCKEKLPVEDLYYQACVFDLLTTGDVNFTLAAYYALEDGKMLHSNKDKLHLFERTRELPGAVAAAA


The binders below were run against T1, Repulsive guidance molecule A (assay: cell-based or functional assay).

BMP Assay IC50 | Binder
0.25 nM | RGMA (AE12-1) (antibody, V domains shown) VH: EVQLVQSGAEVKKPGASVKVSCKASGYTFTSHGISWVRQAPGQGLDWMGWISPYSGNTNYAQKLQGRVTMTTDTSTSTAYMELSSLRSEDTAVYYCARVGSGPYYYMDVWGQGTLVTVSS VL: QSALTQPRSVSGSPGQSVTISCTGTSSSVGDSIYVSWYQQHPGKAPKLMLYDVTKRPSGVPDRFSGSKSGNTASLTISGLQAEDEADYYCCSYAGTDTLFGGGTKVTVLG
0.73 nM | TfR(AB405)-SL-RGMA(AE12-1) (bispecific antibody) VH: QVQLVQSGAEVKKPGASVKVSCKASGFTFSNYGMHWIRQAPGQGLEWIAMIYYDSSKMNYADTVKGRFTITRDNSTNTLYMELSSLRSEDTAVYYCAVPTSHYVVDVWGQGTTVTVSSASTKGPEVQLVQSGAEVKKPGASVKVSCKASGYTFTSHGISWVRQAPGQGLDWMGWISPYSGNTNYAQKLQGRVTMTTDTSTSTAYMELSSLRSEDTAVYYCARVGSGPYYYMDVWGQGTLVTVSS VL: EIVMTQSPATLSVSPGERATLSCQASQDIGNWLAWYQQKPGQSPRLLIYGATSLADGVPARFSGSRSGTEFTLTISSLQSEDFAVYYCLQAYNTPWTFGGGTKVEIKRTVAAPSVFIFPPQSALTQPRSVSGSPGQSVTISCTGTSSSVGDSIYVSWYQQHPGKAPKLMLYDVTKRPSGVPDRFSGSKSGNTASLTISGLQAEDEADYYCCSYAGTDTLFGGGTKVTVL
< 0.025 nM | RGMA(AE12-1)-GS-TfR(AB403) DVD-Ig protein (bispecific antibody, human IgG1, not shown: a dimerising Fc or GST) heavy: EVQLVQSGAEVKKPGASVKVSCKASGYTFTSHGISWVRQAPGQGLDWMGWISPYSGNTNYAQKLQGRVTMTTDTSTSTAYMELSSLRSEDTAVYYCARVGSGPYYYMDVWGQGTLVTVSSGGGGSGGGGSEVQLVESGGGLVQPGGSLRLSCAASGFTFSNYGMHWIRQAPGKGLEWIAMIYYDSSKMNYADTVKGRFTISRDNAKNSLYLQMNSLRAEDTAVYYCAVPTSHYVVDVWGQGTTVTVSS light: QSALTQPRSVSGSPGQSVTISCTGTSSSVGDSIYVSWYQQHPGKAPKLMLYDVTKRPSGVPDRFSGSKSGNTASLTISGLQAEDEADYYCCSYAGTDTLFGGGTKVTVLGGGSGGGGSGEIVMTQSPATLSVSPGERATLSCQASQDIGNWLAWYQQKPGQSPRLLIYGATSLADGVPARFSGSRSGTEFTLTISSLQSEDFAVYYCLQAYNTPWTFGGGTKVEIKR
< 0.025 nM | RGMA(AE12-1)-LS-TfR(AB403) (bispecific antibody) VH: EVQLVQSGAEVKKPGASVKVSCKASGYTFTSHGISWVRQAPGQGLDWMGWISPYSGNTNYAQKLQGRVTMTTDTSTSTAYMELSSLRSEDTAVYYCARVGSGPYYYMDVWGQGTLVTVSSASTKGPSVFPLAPEVQLVESGGGLVQPGGSLRLSCAASGFTFSNYGMHWIRQAPGKGLEWIAMIYYDSSKMNYADTVKGRFTISRDNAKNSLYLQMNSLRAEDTAVYYCAVPTSHYVVDVWGQGTTVTVSS VL: QSALTQPRSVSGSPGQSVTISCTGTSSSVGDSIYVSWYQQHPGKAPKLMLYDVTKRPSGVPDRFSGSKSGNTASLTISGLQAEDEADYYCCSYAGTDTLFGGGTKVTVLGQPKAAPEIVMTQSPATLSVSPGERATLSCQASQDIGNWLAWYQQKPGQSPRLLIYGATSLADGVPARFSGSRSGTEFTLTISSLQSEDFAVYYCLQAYNTPWTFGGGTKVEIK
1.18 nM | RGMA(AE12-1)-SS-TfR(AB403) (bispecific antibody) VH: EVQLVQSGAEVKKPGASVKVSCKASGYTFTSHGISWVRQAPGQGLDWMGWISPYSGNTNYAQKLQGRVTMTTDTSTSTAYMELSSLRSEDTAVYYCARVGSGPYYYMDVWGQGTLVTVSSASTKGPEVQLVESGGGLVQPGGSLRLSCAASGFTFSNYGMHWIRQAPGKGLEWIAMIYYDSSKMNYADTVKGRFTISRDNAKNSLYLQMNSLRAEDTAVYYCAVPTSHYVVDVWGQGTTVTVSS VL: QSALTQPRSVSGSPGQSVTISCTGTSSSVGDSIYVSWYQQHPGKAPKLMLYDVTKRPSGVPDRFSGSKSGNTASLTISGLQAEDEADYYCCSYAGTDTLFGGGTKVTVLGQPKAAPEIVMTQSPATLSVSPGERATLSCQASQDIGNWLAWYQQKPGQSPRLLIYGATSLADGVPARFSGSRSGTEFTLTISSLQSEDFAVYYCLQAYNTPWTFGGGTKVEIK

What follows are binders tested against T2, mouse Transferrin Receptor overexpressed on Hek 293 cells (mouse, UniProt Q62351 1-763) (assay: cell-based MSD-ECL binding, Hek293/mTfR cells).
T2 construct: whole, on cells; also called mTfR; Hek293/mTfR
T2 sequence (Q62351 whole entry): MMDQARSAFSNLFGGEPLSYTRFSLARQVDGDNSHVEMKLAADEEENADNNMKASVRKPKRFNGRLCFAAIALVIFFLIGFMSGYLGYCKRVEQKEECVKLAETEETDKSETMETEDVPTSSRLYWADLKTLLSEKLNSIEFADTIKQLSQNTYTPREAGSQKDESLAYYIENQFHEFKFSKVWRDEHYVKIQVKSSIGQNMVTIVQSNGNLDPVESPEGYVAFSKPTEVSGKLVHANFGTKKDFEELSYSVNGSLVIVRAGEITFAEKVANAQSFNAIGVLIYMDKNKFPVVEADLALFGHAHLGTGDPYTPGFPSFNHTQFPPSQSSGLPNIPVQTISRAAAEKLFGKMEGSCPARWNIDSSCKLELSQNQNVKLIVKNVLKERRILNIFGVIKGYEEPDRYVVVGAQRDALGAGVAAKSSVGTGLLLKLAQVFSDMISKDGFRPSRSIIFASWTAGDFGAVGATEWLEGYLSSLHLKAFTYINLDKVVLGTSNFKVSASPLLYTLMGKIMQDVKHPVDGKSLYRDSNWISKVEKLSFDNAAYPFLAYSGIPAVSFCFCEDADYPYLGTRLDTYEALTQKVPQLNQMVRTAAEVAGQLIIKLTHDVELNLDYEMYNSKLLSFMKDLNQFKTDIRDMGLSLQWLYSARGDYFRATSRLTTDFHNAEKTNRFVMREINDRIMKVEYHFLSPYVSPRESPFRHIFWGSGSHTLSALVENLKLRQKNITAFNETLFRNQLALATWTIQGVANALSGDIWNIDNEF
Method: Meso-scale Discovery (MSD) Electrochemiluminescence (ECL) assays to screen for antibodies or DVD-Ig proteins that bind a desired target antigen expressed on the cell surface were performed as follows: Hek 293 cells overexpressing mouse Transferrin Receptor were added onto MSD 96-well plates (MSD Cat# L11 XB-3, lot#2290-EA). The plates which were blocked using blocking buffer (30% FBS Serum (Hyclone) in PBS) at 37° C. for 1 hour. After incubating at room temperature (RT) for 30 minutes with mild agitation, plates were washed with DPBS 3 times and Abs/DVD-Ig proteins (10,000 ng/ml) were added. After incubating for 1 hour at RT, plates were washed 3 times with DPBS and 25 μl of Goat anti-human Sulfo TAG (MSD Cat# R32AC-, Lot# W001162) at 1 μg/ml was added. Following incubation at RT for 1 hour, plates were washed and MSD read buffer was added before reading on a MSD SECTOR Imager 6000. EC50 values were obtained using Xlfit4 software package.

binding result | Binder
no binding (tested: 10,000 ng/ml) | DVD2366 (bispecific antibody, DVD-Ig) VH-VH: EVQLLESGGGLVQPGGSLRLSCAASGFTFSNYGMSWVRQAPGKGLEWVASIRSGGGRTYYSDNVKGRFTISRDNSKNTLYLQMNSLRAEDTAVYYCVRYDHYSGSSDYWGQGTLVTVSSASTKGPQVQLVQSGAEVKKPGASVKVSCKASGFTFSNYGMHWIRQAPGQGLEWIAMIYYDSSKMNYADTVKGRFTITRDNSTNTLYMELSSLRSEDTAVYYCAVPTSHYVVDVWGQGTTVTVSS VL-VL: DVVMTQSPLSLPVTPGEPASISCKSSQSLLDSDGKTYLNWLLQKPGQSPQRLIYLVSKLDSGVPDRFSGSGSGTDFTLKISRVEAEDVGVYYCWQGTHFPRTFGQGTKVEIKRTVAAPEIVMTQSPATLSVSPGERATLSCQASQDIGNWLAWYQQKPGQSPRLLIYGATSLADGVPARFSGSRSGTEFTLTISSLQSEDFAVYYCLQAYNTPWTFGGGTKVEIK

Each binder was assayed against Repulsive guidance molecule A (Mus musculus (Mouse)) (UniProt Q6PCX7) (assay: cell-based or functional assay).

Binder | BMP Assay IC50
RGMA(AE12-1)-SS-TfR(AB402) (bispecific antibody, part only; not given: Inner anti-TfR domains, linkers, constant regions, not shown: a dimerising Fc or GST) heavy, part: EVQLVQSGAEVKKPGASVKVSCKASGYTFTSHGISWVRQAPGQGLDWMGWISPYSGNTNYAQKLQGRVTMTTDTSTSTAYMELSSLRSEDTAVYYCARVGSGPYYYMDVWGQGTLVTVSS light, part: QSALTQPRSVSGSPGQSVTISCTGTSSSVGDSIYVSWYQQHPGKAPKLMLYDVTKRPSGVPDRFSGSKSGNTASLTISGLQAEDEADYYCCSYAGTDTLFGGGTKVTVLG | 0.436 nM
RGMA(AE12-1)-GS-TfR(AB402) (bispecific antibody, part only; not given: anti-TfR domains, constants, not shown: a dimerising Fc or GST) heavy, part: EVQLVQSGAEVKKPGASVKVSCKASGYTFTSHGISWVRQAPGQGLDWMGWISPYSGNTNYAQKLQGRVTMTTDTSTSTAYMELSSLRSEDTAVYYCARVGSGPYYYMDVWGQGTLVTVSSGGGGSGGGGS light, part: QSALTQPRSVSGSPGQSVTISCTGTSSSVGDSIYVSWYQQHPGKAPKLMLYDVTKRPSGVPDRFSGSKSGNTASLTISGLQAEDEADYYCCSYAGTDTLFGGGTKVTVLGGGSGGGGSG | 0.014 nM

Other lines, results leading:

BMP Assay IC50 | Binder
0.701 nM | TfR(AB405)-LL-RGMA(AE12-1) (bispecific antibody, part only; not given: Outer anti-TfR domains, linkers, constant regions, not shown: a dimerising Fc or GST) heavy, part: EVQLVQSGAEVKKPGASVKVSCKASGYTFTSHGISWVRQAPGQGLDWMGWISPYSGNTNYAQKLQGRVTMTTDTSTSTAYMELSSLRSEDTAVYYCARVGSGPYYYMDVWGQGTLVTVSS light, part: QSALTQPRSVSGSPGQSVTISCTGTSSSVGDSIYVSWYQQHPGKAPKLMLYDVTKRPSGVPDRFSGSKSGNTASLTISGLQAEDEADYYCCSYAGTDTLFGGGTKVTVLG
3.12 nM | TfR(AB405)-GS-RGMA(AE12-1) (bispecific antibody, part only; not given: anti-TfR domains, constants, not shown: a dimerising Fc or GST) heavy, part: GGGGSGGGGSEVQLVQSGAEVKKPGASVKVSCKASGYTFTSHGISWVRQAPGQGLDWMGWISPYSGNTNYAQKLQGRVTMTTDTSTSTAYMELSSLRSEDTAVYYCARVGSGPYYYMDVWGQGTLVTVSS light, part: GGSGGGGSGQSALTQPRSVSGSPGQSVTISCTGTSSSVGDSIYVSWYQQHPGKAPKLMLYDVTKRPSGVPDRFSGSKSGNTASLTISGLQAEDEADYYCCSYAGTDTLFGGGTKVTVLG
